In patent US20180028641A1 (GlaxoSmithKline, published 2018):

Target: T1, human transferrin hTF (Sigma T-4132) (human, UniProt P02787 20-698)
T1 construct: Bought protein
Test: gel filtration (Superdex 200 PC 3.2/30) of each protein and of the mixture, fractions analysed by SDS-PAGE

T1 sequence (P02787 20-698 limits assumed): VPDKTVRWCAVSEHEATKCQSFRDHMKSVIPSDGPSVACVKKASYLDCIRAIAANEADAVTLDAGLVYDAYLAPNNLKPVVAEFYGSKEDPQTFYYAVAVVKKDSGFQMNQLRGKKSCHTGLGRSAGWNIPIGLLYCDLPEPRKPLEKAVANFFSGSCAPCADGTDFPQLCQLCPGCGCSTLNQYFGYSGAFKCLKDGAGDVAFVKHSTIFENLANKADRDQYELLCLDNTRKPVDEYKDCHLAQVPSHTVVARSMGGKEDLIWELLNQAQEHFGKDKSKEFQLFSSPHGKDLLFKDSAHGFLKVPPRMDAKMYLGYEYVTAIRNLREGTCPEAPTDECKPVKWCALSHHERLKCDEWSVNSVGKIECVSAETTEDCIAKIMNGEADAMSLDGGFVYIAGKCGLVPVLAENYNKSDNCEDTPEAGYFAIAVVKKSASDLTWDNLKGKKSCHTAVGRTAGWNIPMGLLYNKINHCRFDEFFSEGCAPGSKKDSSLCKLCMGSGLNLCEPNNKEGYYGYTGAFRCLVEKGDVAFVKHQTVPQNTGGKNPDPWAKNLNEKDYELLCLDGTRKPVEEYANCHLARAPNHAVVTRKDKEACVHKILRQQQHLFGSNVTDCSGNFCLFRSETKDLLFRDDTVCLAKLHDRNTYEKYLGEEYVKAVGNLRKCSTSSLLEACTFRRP

B1: recombinant NMB1870 (strain MC58, variant 1), His-tag fusion expressed in E. coli without the leader peptide (other)
chain: CSSGGGGVAADIGAGLADALTAPLDHKDKGLQSLTLDQSVRKNEKLKLAAQGAEKTYGNGDSLNTGKLKNDKVSRFDFIRQIEVDGQLITLESGEFQVYKQSHSALTAFQTEQIQDSEHSGKMVAKRQFRIGDIAGEHTSFDKLPEGGRATYRGTAFGSDDAGGKLTYTIDFAAKQGNGKIEHLKSPELNVDLAAADIKPDGKRHAVISGSVLYNQAEKGSYSLGIFGGKAQEVAGSAEVKTVNGIRHIGLAAKQ
notes: also called purified NMB1870; the recombinant protein; not shown: His-tag (pET-21b+ vector)
**Q.** Does B1 bind?
**A.** no binding (tested: 7 µM)
